Results published in patent publication US20110195090A1.
pEC50: −log10 of the molar value.

What follows are substances tested against Bal gp120 (HIV-1 isolate Bal) (assay: ELISA, bal gp120 coated, scFv).

Substance | pEC50
mature scFv b12 | 8.89
scFv b12 germline mutant G53Y | < 6.00
scFv b12 germline mutant A52P/G53Y | 7.06

Each substance was assayed against Bal gp120 (HIV-1 isolate Bal) (assay: ELISA, bal gp120 coated, scFv-Fc).

Substance | pEC50
b12 A52P/G53Y scFv-Fc (Fc fusion) | 7.53
b12 G53Y scFv-Fc (Fc fusion) | < 6.00
mature b12 scFv-Fc (Fc fusion) | 9.40
